Results taken from publication PMC7041945, “Misfolded proteins bind and activate death receptor 5 to trigger apoptosis during unresolved endoplasmic reticulum stress” (eLife, 2020).

Experiments:
Assay type in all cases: cell-based, Homo sapiens
[1] = system: caspase 8 in HCT116 GFP-Trap immunoprecipitates; experiment: Caspase 8 activity (caspase glo 8) of GFP immunoprecipitates (beads)
Procedure: 15 cm dishes were seeded with 4 million HCT116 cells and allowed to recover for 18 hr prior to transfection. Samples were then transfected for 24 hr with the GFP-tagged ER trafficked protein, cytosolic GFP, or empty vector. To harvest apoptotic and living cells for each sample, all media and washes were collected. Cells were scraped in 2 ml of cold PBS and combined with the media and washes. Samples were centrifuged to pellet cells, washed with 1 ml cold PBS, and flash frozen in liquid N2 prior to lysis.
The cell pellets were resuspended in 750 μl of 30 mM HEPES pH 7.2, 150 mM NaCl, 1% Triton X-100 with 1x Roche protease inhibitor cocktail (if used subsequently for caspase glo 8 assay) or with 5x Roche protease inhibitor cocktail (if used for immunoblotting). The cells were lysed by mechanical shearing through a 25G needle for 13–15 plunges followed by incubation on ice for 30 min. The lysate was centrifuged at 2000xg for 5 min to remove debris and then incubated with 30 μl of GFP-Trap magnetic agarose beads (Chromotek gtma-20) for 4 hr at 4°C. The beads were then washed with 750 μl of lysis buffer for 10 min at 4°C for three rounds.
For measuring caspase activity, a fifth of the beads was resuspended in 40 μl of 30 mM HEPES pH 7.2, 150 mM NaCl, 1% Triton X-100. 10 μl of the resuspended mixture was incubated with 10 ul of the caspase glo 8 luminogenic substrate (Promega #PRG8200) for 45 min at RT before measuring luminescence.

[2] = system: HCT116 cells; experiment: Trypan blue staining, automated cell counting; parameters: key to Trypan blue- / Trypan blue+ / avg Trypan blue- / avg Trypan blue+: % of cells (Trypan blue positive or negative); settings: for Dead concentration / Live concentration / Total Concentration / Viability (%): hct mpz, BF
Procedure: Cells seeded in a 6-well plate were transfected with the specified plasmid for 24 hr and harvested via trypsinization in complete media and ultimately resuspended in 400 μl of media to obtain a concentration of 1.0–3.0 × 10^6 cells/ml. The cell suspension was then mixed 1:1 with 0.4% Trypan blue (Sigma-Aldrich) and incubated at 37°C for 30 min. The percentage of cells staining positive for was then quantified using the Countess II FL Automated Cell Counter (ThermoFisher, catalog # AMQAF1000) default brightfield settings with disposable slides.

[3] = system: DR5 / ERGIC53 / giantin in HCT116 cells; experiment: Immunofluorescence co-localization (Pearson's correlation per cell)
Procedure: HCT116 were seeded at 25000 cells per well in an 8-well glass-bottom μSlide (Ibidi 80827) pre-coated with Collagen IV (Sigma-Aldrich C6745, 0.03 mg/ml in PBS incubated for 30 min at RT, and then rinsed off with PBS x 3) in growth media 18 hr prior to transfection (see above for protocol). 24 hr post-transfection, the cells were fixed using 4% paraformaldehyde (PFA, Electron Microscopy Sciences) or methanol, depending on the antibody combination used for immunostaining (see table below). Samples were protected from light after fixation to preserve GFP fluorescence.
For fixation with 4% PFA, 32% PFA was added directly to the well in growth media for a 1:8 dilution and incubated for 10–15 min at RT. Cells were then permeabilized with PHEM buffer (60 mM PIPES, 25 mM HEPES, 10 mM EGTA, 2 mM MgCl2-hexahydrate, pH 6.9) containing 0.1% Triton-X100 for 10 min at RT for three washes.
For fixation with methanol, media was removed and cells were washed with cold PBS. Then methanol (pre-cooled at −20°C) was added to the well and incubated at −20°C for 3–4 min. The methanol was promptly aspirated and replaced with PHEM buffer (without Triton X-100), followed by two more 10 min washes with PHEM at RT.
To block against non-specific antibody interactions, cells were rinsed in PHEM (without 0.1% Triton X-100) and then incubated with PHEM containing 2% normal goat serum (Jackson Immunoresearch Laboratories, 005-000-121) for 1 hr at RT. Primary antibodies were incubated in blocking solution overnight at 4°C at the dilution noted in the table above. […]
From the 405 nm channel, cell nuclei were identified as primary objects using maximum correlation thresholding (MCT) and shape to distinguish clumped objects. […] For overlap between DR5 and MPZ/RHO-GFP, Pearson’s correlation coefficients were calculated within the MPZ/RHO mask for each cell to filter out untransfected cells. For overlap between DR5/MPZ and organelle markers, Pearson’s correlation coefficients were calculated within tertiary objects for the organelle marker in GFP+ cells. […]

[4] = biological replicate 1 (05.22.2019)
[5] = biological replicate 2 (05.24.2019)
[6] = biological replicate 3 (05.24.2019)
[7] = MPZ-positive cells, N > 55, 24 hr, mean

average fold change in caspase 8 activity relative to empty ([1]; GFP IP beads, run 2019-02-05): 2.174 fold
average fold change (relative to empty average) ([1]; GFP beads, dilution 0.0666667, average of rep1-rep3): 3.5
fold change in caspase 8 activity, Mean ± SEM (unpaired t test) ([1]; GFP beads, n=3): 2.621 ± 0.4397, n=3 fold
average fold change in caspase 8 activity relative to empty ([1]; GFP beads, sheet 2018-02-11 (compiled as Rep 2019-02-11)): 3.5 fold
fold change in caspase 8 activity, average of averages ([1]; GFP beads, three runs compiled): 2.621 fold
caspase 8 activity of immunoprecipitates compared to empty beads ([1]; MPZ-GFP immunoprecipitates, 24 hr post-transfection): 2–3 fold
B1: MPZ-GFP: myelin protein zero with a C-terminal monomeric EGFP, expressed from plasmid (protein)
chain: IVVYTDREVHGAVGSRVTLHCSFWSSEWVSDDISFTWRYQPEGGRDAISIFHYAKGQPYIDEVGTFKERIQWVGDPRWKDGSIVIHNLDYSDNGTFTCDVKNPPDIVGKTSQVTLYVFEKVPTRYGVVLGAVIGGVLGVVLLLLLLFYVVRYCWLRRQAALQRRLSAMEKGKLHKPGKDASKRGRQTPVLYAMLDHSRSTKAVSEKKAKGLGESRKDKK
modifications: left off: monomeric EGFP, C-terminal, kept
notes: myelin protein zero with a C-terminal monomeric EGFP, expressed from plasmid
Trypan blue+ ([2]; MPZ-GFP, Rep 1): 47.8261
Trypan blue- ([2]; MPZ-GFP, Rep 1): 52.1739
Trypan blue+ ([2]; MPZ-GFP, Rep 2): 36.3817
Trypan blue- ([2]; MPZ-GFP, Rep 2): 63.6183
Trypan blue+ ([2]; MPZ-GFP, Rep 3): 29.5129
Trypan blue- ([2]; MPZ-GFP, Rep 3): 70.4871
avg Trypan blue+ ([2]; MPZ-GFP, avg of Rep 1-3): 37.9069
avg Trypan blue- ([2]; MPZ-GFP, avg of Rep 1-3): 62.0931
Dead concentration [2, 4]: 3.87E+05
Live concentration [2, 4]: 4.22E+05
Total Concentration [2, 4]: 8.09E+05
Viability (%) [2, 4]: 52.1739%
Dead concentration [2, 5]: 1.07E+06
Live concentration [2, 5]: 1.88E+06
Total Concentration [2, 5]: 2.95E+06
Viability (%) [2, 5]: 63.6183%
Dead concentration [2, 6]: 1.21E+06
Live concentration [2, 6]: 2.89E+06
Total Concentration [2, 6]: 4.09E+06
Viability (%) [2, 6]: 70.4871%
Pearson's correlation per cell between DR5 and ERGIC53 [3, 7]: 0.61 ± 0.03
Pearson's correlation per cell between DR5 and giantin [3, 7]: 0.14 ± 0.02
overlap (mean Pearson's correlation) with DR5 signal ([3]; versus 90° rotated images, 24 hr): statistically significant overlap with DR5 signal
